13 substances from patent US20220177587A1, “METHODS AND USES OF VARIANT CD80 FUSION PROTEINS AND RELATED CONSTRUCTS” (Alpine Immune Sciences, Inc., priority 2018, published 2022) can be followed below.

Test [1] deals with CD28 (human) (UniProt P10747).
The target in test [2] is PD-L1 (human) (UniProt Q9NZQ7).
Target sequence in this assay (Q9NZQ7 19-290): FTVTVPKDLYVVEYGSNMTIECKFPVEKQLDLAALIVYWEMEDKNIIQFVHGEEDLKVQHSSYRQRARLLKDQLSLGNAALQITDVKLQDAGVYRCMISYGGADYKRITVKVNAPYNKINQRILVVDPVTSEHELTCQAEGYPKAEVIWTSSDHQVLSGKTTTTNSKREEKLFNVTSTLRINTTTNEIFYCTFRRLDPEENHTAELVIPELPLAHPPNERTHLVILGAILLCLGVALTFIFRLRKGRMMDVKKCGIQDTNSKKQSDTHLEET
The target of test [3] is CD28 (human) (UniProt P10747). This is another data set of the same source.
The target in test [4] is PD-L1 (human) (UniProt Q9NZQ7). This is another data set of the same source.
Target sequence in this assay (Q9NZQ7 19-290): as above
In test [5] the target is CD28 (human) (UniProt P10747). The test can be described thus: flow cytometry, Jurkat/IL2 reporter cells (endogenous CD28). (Flow cytometry measures light scatter and fluorescence of single cells or particles in a stream.)
Test [6] deals with PD-L1 (human) (UniProt Q9NZQ7). Put plainly: flow cytometry, CHO cells expressing huPD-L1.
Target sequence in this assay (Q9NZQ7 19-290): as above
Test [7] concerns the target human CTLA-4 (human) (UniProt P16410). The test can be described thus: flow cytometry, CHO cells expressing CTLA4.
The target in test [8] is PD-L1 (human) (UniProt Q9NZQ7). The test can be described thus: flow cytometry, MFI on PD-L1 over MFI on CD28.
Target sequence in this assay (Q9NZQ7 19-290): as above
The target in test [9] is PD-L1 (human) (UniProt Q9NZQ7). The test can be described thus: flow cytometry, CHO cells expressing PD-L1.
Target sequence in this assay (Q9NZQ7 19-290): as above
For test [10], the target named is CD28 (human) (UniProt P10747). Put plainly: flow cytometry, Jurkat cells (CD28).
The target of test [11] is human CTLA-4 (human) (UniProt P16410). The test can be described thus: flow cytometry, CHO cells stably expressing CTLA4.
The target of test [12] is CD28 (human) (UniProt P10747). The source holds these as a separate data set.
For test [13], the target named is PD-L1 (human) (UniProt Q9NZQ7). This is another data set of the same source.
Target sequence in this assay (Q9NZQ7 19-290 limits assumed): as the sequence (Q9NZQ7 19-290) above
Test [14] has as its target PD-L1 (human) (UniProt Q9NZQ7). The test can be described thus: flow cytometry, CHO cells stably expressing PD-L1.
Target sequence in this assay (Q9NZQ7 19-290): as above
The target in test [15] is CD28 (human) (UniProt P10747). Put plainly: flow cytometry, Jurkat cells (CD28). The source holds these as a separate data set.
The target of test [16] is PD-L1 (human) (UniProt Q9NZQ7). The test can be described thus: flow cytometry, MFI on PD-L1 cells over MFI on CD28 cells.
The target in test [17] is human CTLA-4 (human) (UniProt P16410). Put plainly: flow cytometry, CHO cells expressing huCTLA4.

Like-named read-outs stand apart in the source and are kept apart here.

Sequence of human CTLA-4 (human) (P16410 36-223): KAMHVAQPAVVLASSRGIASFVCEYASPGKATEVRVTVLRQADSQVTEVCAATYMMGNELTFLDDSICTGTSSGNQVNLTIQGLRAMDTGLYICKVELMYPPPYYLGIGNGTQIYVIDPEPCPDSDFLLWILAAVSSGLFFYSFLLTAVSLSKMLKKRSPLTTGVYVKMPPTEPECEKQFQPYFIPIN

For the substance CD80 E35D IgV-Fc (inert) (Fc fusion), the Jurkat/IL2 reporter RLU at 50 nM, CHO/OKT3/PD-L1 aAPC in [1] and in test [2] was 1610 RLU each time. The Jurkat/IL2 reporter RLU at 50 nM, CHO/OKT3 aAPC without PD-L1 in [1] was determined as 448 RLU. Also, the IL-2 release, primary T cells + K562/OKT3/PD-L1, 100 nM in [3] and in test [4] was 2740 each time.
As to “variant CD80 IgV-Fc Q27H/E35D/M47L/L85Q/R94Q/E95K (Fc fusion)”, the figures for the MFI at 33.3 nM in test [5] and in [6] were 282 MFI and 36100 MFI, respectively.
For the substance “CD80 E35D/M43I/M47L/V68M IgV-Fc (Fc fusion)”, the Fold change to WT CD80 was 9.3 fold in test [7], 328 fold in [9] and 48.3 fold in test [10]. The MFI at 33.3 nM came to 16200 MFI in test [7], 16900 MFI in [9] and 1520 MFI in [10]. Further, the Ratio of PDL1:CD28 in test [8] is 11.1.
As for “variant CD80 IgV-Fc H18Y/A26E/E35D/M47L/D90G (Fc fusion)”, the values for the Fold change to WT CD80 in test [11], in [14] and in test [15] were 14.5 fold, 291 fold and 31.4 fold, respectively. Further, the MFI at 33.3 nM in test [11] is 19700 MFI; in test [14], 12700 MFI; in [15], 1380 MFI. Also, the IL-2 luciferase reporter, fold increase over WT CD80-IgV-Fc at 5.0 nM in test [12] and in [13] was 2.37 fold in each case. The Ratio of PDL1:CD28 in [16] came to 9.2.
As to “variant CD80 IgV-Fc H18Y/A26E/E35D/V68M/A71G (Fc fusion)”, the figures for the Fold change to WT CD80 in test [11], in test [14] and in test [15] were 14.3 fold, 630 fold and 9 fold, respectively. Further, the MFI at 33.3 nM in test [11] stood at 19400 MFI; in test [14], 27500 MFI; in test [15], 394 MFI. Also, the IL-2 luciferase reporter, fold increase over WT CD80-IgV-Fc at 5.0 nM in test [12] and in test [13] was 2.46 fold in each case. Further, the Ratio of PDL1:CD28 in test [16] is 69.7.
Take “variant CD80 IgV-Fc H18Y/A26E/E35D/M47L/V68M/D90G (Fc fusion)”: the Fold change to WT CD80 in test [11] stood at 18.3 fold; in [14] it was 578 fold; in [15], 60.9 fold. Moreover, the figures for the MFI at 33.3 nM in [11], in [14] and in [15] were 24900 MFI, 25200 MFI and 2680 MFI, respectively. Moreover, the IL-2 luciferase reporter, fold increase over WT CD80-IgV-Fc at 5.0 nM in [12] and in test [13] was 2.29 fold throughout. Further, the Ratio of PDL1:CD28 in [16] worked out at 9.4.
For “CD80 E35D/M47L/V68M/E95V/L97Q IgV-Fc (Fc fusion)”, the Fold change to WT CD80 came out at 8.5 fold in [7], 361 fold in test [9] and 0.5 fold in test [10]. Moreover, the values for the MFI at 33.3 nM in test [7], in test [9] and in [10] were 15000 MFI, 18600 MFI and 14 MFI, respectively. Also, in test [8], the Ratio of PDL1:CD28 was 1300.
For “CD80 E23G/A26S/E35D/T62N/A71D/L72V/L85M IgV-Fc (inert) (Fc fusion)”, the Jurkat/IL2 reporter RLU at 50 nM, CHO/OKT3/PD-L1 aAPC in test [1] and in [2] was 695 RLU in each case. Further, in [1], the Jurkat/IL2 reporter RLU at 50 nM, CHO/OKT3 aAPC without PD-L1 came out at 606 RLU. Besides, the IL-2 release, primary T cells + K562/OKT3/PD-L1, 100 nM in test [3] and in test [4] was 102 throughout.
On to “variant CD80 IgV-Fc Q33R/E35D/K37E/M47V/L85Q (Fc fusion)”, for which the results for the MFI at 33.3 nM in test [5] and in test [6] were 258 MFI and 44400 MFI, respectively.
Turning to “CD80 E35G/K54E/A71D/L72P IgV-Fc (inert) (Fc fusion)”, the Jurkat/IL2 reporter RLU at 50 nM, CHO/OKT3/PD-L1 aAPC in [1] and in test [2] was 476 RLU throughout. Further, the Jurkat/IL2 reporter RLU at 50 nM, CHO/OKT3 aAPC without PD-L1 in [1] was 440 RLU. In addition, the IL-2 release, primary T cells + K562/OKT3/PD-L1, 100 nM in test [3] and in test [4] was 59 each time.
Take “variant CD80 IgV-Fc Q33L/E35D/M47V (Fc fusion)”: the results for the MFI at 33.3 nM in test [17] and in [6] were 47600 MFI and 47900 MFI, respectively.
For “variant CD80 IgV-Fc A26E/E35D/V68M/A71G/D90G (Fc fusion)”, the Fold change to WT CD80 in [11] stood at 17.1 fold; in test [14], 608 fold; in test [15] it was 47.9 fold. For the same substance, the MFI at 33.3 nM in test [11] worked out at 23300 MFI; in [14], 26500 MFI; in test [15], 2100 MFI. For the same substance, the IL-2 luciferase reporter, fold increase over WT CD80-IgV-Fc at 5.0 nM in test [12] and in test [13] was 2.34 fold throughout. In addition, the Ratio of PDL1:CD28 in [16] amounted to 12.6.
In the case of “CD80 A26E/E35D/M47L/L85Q IgV-Fc (inert) (Fc fusion)”, the Jurkat/IL2 reporter RLU at 50 nM, CHO/OKT3/PD-L1 aAPC in [1] and in test [2] was 2000 RLU throughout. The Jurkat/IL2 reporter RLU at 50 nM, CHO/OKT3 aAPC without PD-L1 in test [1] was determined as 432 RLU. Also, the IL-2 release, primary T cells + K562/OKT3/PD-L1, 100 nM in test [3] and in test [4] was 1460 each time.
